Source: the supplement of paper PMC10567573

B1: NET1 (parent)
chain: IKRTIRVLDVNNQSFREQEEPSNK

Variants of: B1
Assay: protein stability index of a GFP-peptide fusion (GPS, HEK-293T) (PSI 1-6); higher = more stable
Conditions: c terminus: a fixed tail appended
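Note: lentivirally expressed fusions sorted by FACS into six bins by GFP to DsRed ratio, PSI derived from sequencing read proportions per bin multiplied by bin number.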

Protein stability index of substitutions, site by site:
V7: Y 3.04, T 4.21, S 4.28, K 4.37, H 4.25, I 4.02, Q 5.07, G 3.92, C 3.62, W 2.41, A 3.3, L 3.46, E 3.74, F 3.35, D 4.53, P 4.22, R 3.71, M 3.27, N 4.5
D9: W 2.89, I 1.58, C 2.94, F 2.24, K 4.44, L 1.77, R 3.54, N 4.11, T 2.9, Y 2.41, G 3.7, M 1.91, Q 3.26, E 3.91, H 4.23, A 3.31, P 4.36, S 3.5
Q13: M 3.8, V 3.67, N 3.69, P 3.35, K 3.7, G 3.8, S 4.19, F 2.72, Y 2.04, R 3.27, T 3.37, A 4.18, W 2.51, L 2.33, D 3.56, I 2.99, C 3.01, E 4.26, H 3.28
R3: P 4.57, D 4.81, W 1.49, H 4.39, I 1.37, N 4.86, K 3.93, S 4.71, G 4.1, A 3.48, Y 2.19, Q 4.44, M 2.08, E 4.92, T 4.02, L 1.9, V 1.73, C 2.69, F 1.75
R6: M 3.32, A 2.88, F 2.68, V 2.77, W 2.42, L 2.63, Y 2.35, Q 4.16, I 1.99, K 4.04, C 3.35, D 4.77, G 4.51, T 3.92, S 4.23, H 4.45, P 4.87, N 3.62, E 4.65
N11: T 3.41, M 2.83, Q 4.34, D 4.47, R 4.41, K 4.44, V 3.56, S 4.22, G 2.99, H 3.62, Y 4.06, C 3.09, P 4.16, L 2.26, W 2.65, F 2.61, E 4.51, A 4.48, I 1.85
S14: E 3.79, Q 3.91, F 2.56, I 3.64, D 3.68, L 2.62, N 3.47, P 2.9, T 3.52, M 3.21, H 3.09, R 3.78, W 3.01, A 3.02, Y 2.6, G 4.17, K 3.24, V 3.47, C 3.27
N12: G 4.14, Y 3.21, M 3.29, P 3.41, H 3.83, C 3.16, R 3.14, K 2.72, E 3.98, W 2.63, A 3.38, Q 4.08, V 2.97, T 3.3, L 3.25, I 3.51, S 2.82, D 4.21, F 2.7
K2: I 3.05, Y 2.6, W 3.11, F 3.04, S 3.29, E 4.01, D 4.83, M 3.75, P 4.47, G 4.51, Q 4.63, N 4.34, H 4.01, T 4.8, R 2.93, C 4.05, L 3.72, A 3.74, V 3.33
V10: F 3.19, E 4.79, K 4.35, Q 4.03, N 4.46, D 4.83, A 3.38, I 3.87, P 3.21, C 3.82, Y 4.06, S 3.85, H 4.23, T 4.23, G 4.22, M 4, L 3.85, R 4.04
R16: E 3.94, S 4.06, K 4.21, Y 3.4, G 3.94, P 3.42, H 3.69, C 3.3, T 3.85, M 3.41, N 4.57, L 3.35, A 4, F 3.47, D 4.47, W 2.07, V 3.96, I 3.83, Q 3.43
E19: C 2.74, A 2.57, D 2.84, F 2.15
Q18: C 3.09, K 2.91, R 3.1, E 3.76, G 3.59, T 3.37, L 3.06, D 4.15, V 3.43, Y 2.66, N 3.52, S 2.79, P 3.49, M 3.07, H 3.7, A 2.27, I 3.1, F 2.52
I1: K 4.14, W 3.45, Q 3.69, T 4.49, N 3.61, H 4.81, M 3.63, Y 4.1, V 3.54, R 3.73, P 3.94, G 3.67, L 3.27, S 3.99
F15: V 3.79, H 4.44, M 3.98, I 3.96, R 4.79, L 3.4, T 4.09, N 3.82, P 4.67, Y 3.79, E 4.79, A 4.27, C 4.18, D 4.86, W 3.6, K 4.02, Q 4.29, S 4.3
L8: N 4.57, R 4.68, Q 4.41, Y 3.96, K 4.46, V 3.94, A 4.45, M 3.75, P 4.93, H 4.93, S 4.44, D 4.92, W 3.39, I 2.96, F 3.83, E 5.07, T 4.72, G 4.99, C 4.93
T4: C 3.51, R 3.99, K 3.75, N 4.13, I 1.79, E 4.96, S 4.09, P 3.89, H 3.89, Y 3.09, M 3.3, W 2.38, D 4.51, L 2.59, Q 3.86, V 2.51, F 2.88, G 3.41
E17: K 3.11, H 3.59, C 3.27, Y 2.44, R 3.42, F 2.8, L 3.15, W 1.74, P 2.92, Q 3.14, T 3.03, V 2.8, S 3.16, A 3.6, M 2.92, G 3.29, I 3.22, N 3.16, D 3.25
I5: F 3.39, E 5.05, D 4.91, M 2.55, K 4.75, P 3.78, Q 5.04, A 4.53, W 3.31, R 4.82, Y 3.95, H 4.69, S 4.56, C 4.41, L 2.94, N 4.08, T 5.1
